Source: patent publication US20210263044A1

Target: Protein G bound to porous resin beads (Pierce Biotechnology, Protein G UltraLink resin) (UniProt P19909)
Test: 100 ug IgG mixed with 10 uL Protein G resin bead suspension; supernatant analysed by SDS-PAGE, band pixels

Substance: human immunoglobulin G (IgG) (antibody)
- residual amount of antibody (unbound IgG remaining in the supernatant): 3%
